US20240043505A1 (UNIVERSITY OF PITTSBURGH OF THE COMMONWEALTH SYSTEM OF …, published 2024)
Positions count from the first letter of the chain named. Values joined by “and” are separate entries in the source; they are usually repeats but may differ in a detail not shown here. Equal entries are not always repeated.

B1: Nb17 (VHH)
VHH: HVQLVESGGGLVQAGGSLRLSCAASGSIFSSNAMSWYRQAPGKQRELVASITSGGNADYADSVKGRFTISRDKNTVYPEMSSLKPADTAVYYCHAVGQEASAYAPRAYWGQGTQVTVSS
B2: Nb20 (VHH)
VHH: QVQLVESGGGLVQAGGSLRLSCAVSGAGAHRVGWFRRAPGKEREFVAAIGASGGMTNYLDSVKGRFTISRDNAKNTIYLQMNSLKPQDTAVYYCAARDIETAEYIYWGQGTQVTVSS
B3: Nb36 (VHH)
VHH: HVQLVESGGGLVQAGGSLTLTCAASGRTFSSETMDMGWFRQAPGKEREFVAADSWNDGSTYYADSVKGRFTISRDSAKNTLYLQMNSLKPEDTAVYYCAAETYSIYEKDDSWGYWGQGTQVTVSS
B4: Nb11 (VHH)
VHH: HVQLVESGGGLVQAGGSLRLSCAVSGASAERVGWFRRAPGKEREFVAAIGANGGSTNYLDSVKGRFTISRDNAKNTVYLQMNSLKPQDTAVYYCAARNLETFDYTYWGRGTQVTVSS
B5: Nb78 (VHH)
VHH: B2 VHH with V24I, G28S, H30N, I77V, D98N, I105T
B6: Nb64 (VHH)
VHH: QVQLVESGGGLVQAGGSLRLSCAVSGRTFSIAGMGWFRQAPGKDREFLGGITWNDGTTWYADSVKGRFTISRDNAKNMLSLRMNSLKPEDTAVYYCAAGPRLGSTPRAYDYWGQGTQVTVSS
B7: Nb99 (VHH)
VHH: QVQLVESGGGLVQTGGSLRLSCAASGSTRSIWYSGWYRQAPGKQRELVASLTSGGTTYYPDSMKGRFTISGSSGLNMVYLQMNSLRPEDTAVYSCNVRTGSGVYWGQGTQVTVSS
B8: Nb107 (VHH)
VHH: HVQLVESGGGLVQAGGSLRLSCAASGRAIGIHRMAWFRQAPGKERAFVAAIQWTGDMPTYADSLKGRFTISADNAKNTVSLQMTSLKPDDTAVYYCAARSATTALYDYWGQGTQVTVSS
B9: Nb9 (VHH)
VHH: HVQLVESGGGLVQTGGSLRLSCAFSGYTFSTFPTAWFRQAPGKEREFVAGIRWNGGSRDYTEYADFVKGRFTISRDNAKNMIYLQMISLKPEDTALYYCAASHGVVDGTSVNGYRYWGQGTQVTVSS
B10: Nb16 (VHH)
VHH: DVQLVESGGGLVQAGESLRLSCAASGDMFSSNAMAWYRQAPGKQRELVASITSGGNTNYADSVKGRFTISRDNAKNTVYLQMDSLKPEDTAVYYCNGVAYDYSWGRPRNFWGQGTQVTVSS
B11: Nb6 (VHH)
VHH: HVQLVESGGGLVQAGGSLRLSCAASGRTFSTHATGWFRQAPGKEREFLATSVWLDDISRDSTYYAESVKGRFSISRDNAKDTVYLQMNSLKPEDTAVYYCAVKQRVGPGIMSAPTYDYWGQGTQVTVSS
B12: Nb28 (VHH)
VHH: B3 VHH with T19R, T21S, S31T, E32S, A51G, S59R, S76N, S87N, I105L, D109S
B13: Nb82 (VHH)
VHH: DVQLVESGGGLVQAGGSLGLSCAASGSIFRLTAMGWYRQAPGKQRDLVTTITSAGIPHYADSVKGRFTISRDNAKNTVYLQMNGLKPEDTAVYYCYANTLNSQLLPRAYWGQGTQVTVSS
B14: Nb93 (VHH)
VHH: EVQLVESGGGLVQPGGSLRLSCAASGFTFSSYAMSWVRQAPGKGREWVAGITPGSGTFYADSVKGRFTISRDNAKNTLSLEINSLKPEDTALYYCAKCRQEFSWDFSSRDPDDFDYWGQGTQVTVSS
B15: Nb48 (VHH)
VHH: HVQLVESGGGLVQAGGSLRLSCAASGSIFRHYNMGWFRQAPGKEREFVSAISWTNIGTYYADSVKGRFSISRDNNRNTAYLEMNSLKPEDTAVYYCAADRSEFGSRLYSDENEYDYWGQGTQVTVSS
B16: Nb102 (VHH)
VHH: QVQLVESGGGLVQAGGSLRLSCAASGRTFSNSHMGWFRQAPGKEREFVAVISRSGGSTLYADSVKGRFTISRDNAKNTVYLQMNSLKPEDTAVYYCAASRTAGLTSNRSLYDYWGRGTQVTVSS
B17: Nb90 (VHH)
VHH: HVQLVESGGGLVQAGGSLRLSCAVSGRTVSSYVMGWFRQAPGKEREFVAGIGRTGMTITADSVKGRFTISRDNAKNLVYLQMNSLKSEDTAVYWCAAGVRDFAPRIDSYDYWGQGTQVTVSS
B18: Nb92 (VHH)
VHH: HVQLVESGGGLVQAGGSLRLSCAASGRTFSAYGMGWFRQAPGKEREFVAGIARSGSEYYGDSVKGRFTISRDNAKNTVYLQMASLKAEDTGVYYCAADPTILYHALSQRTQNYRYWGPGTQVTVSS
B19: Nb28 (VHH)
VHH: B3 VHH with T19R, T21S, S31T, E32S, A51G, S59R, S76N, S87N, I105L, D109S
B20: Nb36 (VHH)
VHH: B3 VHH
B21: Nb48 (VHH)
VHH: B15 VHH
B22: Nb105 (VHH)
VHH: HVQLVESGGGLVQAGGSLRLSCAVSGRTFSTYGMAWFRQAPGKERDFVATITRSGETTLYADSVKGRFTISRDNAKNTVYLQMNSLKIEDTAVYYCAVRRDSSWGYSRDLFEYDYWGQGTQVTVSS
B23: Nb107 (VHH)
VHH: B8 VHH
B24: Nb82 (VHH)
VHH: B13 VHH
B25: Nb83 (VHH)
VHH: HVQLVESGGGLVQPGGSLRLSCAASGRSFNSYLMGWFRQAPGKEREFVAWISGSPHDIIRYRDSVKDRFTISRDNAKNTVYLQMNSLKPVDTAVYYCAVGSLRVGSFSPDYWGQGTQVTVSS
B26: Nb64 (VHH)
VHH: B6 VHH
B27: Nb95 (VHH)
VHH: QVQLVESGGGLVQAGGSLRLSCAASGRTFSSYSMGWFRQAQGKEREFVATINGNGRDTYYTNSVKGRFTISRDDATNTVYLQMNSLKPEDTAIYYCAADKDVYYGYTSFPNEYEYWGQGTQVTVSS
B28: Nb66 (VHH)
VHH: HVQLVESGGGLVQAGGSLRLSCAASGRTFSVNSIAWFRQAPGKEREFVATINWSGGDIYYADSVKGRFTISRDNGKNTVYLQMNSLKPTDTAVYYCAAARFYGRSIAQDYDSWGQGTQVTVSS
B29: Nb97 (VHH)
VHH: HVQLVESGGGLVQAGGSLRLSCAAPGRTFSTSAMGWFRQAPGKEREFVAAIDWSNTNIHYADTVKGRFTISTDTAKNTVYLQMNNLKPEDTAVYYCAQGGWGLTQPISVDYWGKGTQVTVSS
B30: Nb99 (VHH)
VHH: B7 VHH

What follows are binders tested against T1, SARS-CoV-2 (Wuhan-Hu-1 strain) spike glycoprotein on pseudotyped virus particles (SARS-CoV-2, UniProt P0DTC2 14-1273) (assay: cell-based or functional assay).
In the case of B1, the “IC50, virus neutralization in vitro (assay not stated)” value is reported as about 0.025 µg/mL and the “neutralization of SARS-CoV-2 (assay not stated)” value is reported as at most 100 ng/mL. With B2 the “IC50, pseudovirus assay” value was 0.0016 µg/mL. B3 was tested, and the “neutralization of SARS-CoV-2 (assay not stated)” value was at most 100 ng/mL.

The binders below were run against SARS-CoV-2 Munich strain spike glycoprotein on authentic virus (SARS-CoV-2) (assay: cell-based or functional assay).
For B1, the “Authentic virus PRNT IC50” value was 1.5 nM. With B4 the “Authentic virus PRNT IC50” value was 0.8 nM. With B5 the “Authentic virus PRNT IC50” value was 0.766 nM. With B6 the “Authentic virus PRNT IC50” value was 4.88 nM. In the case of B7, the “Authentic virus PRNT IC50” value is reported as 0.452 nM. For B8, the “Authentic virus PRNT IC50” value was 0.181 nM. With B9 the “Authentic virus PRNT IC50” value was 1.72 nM. With B10 the “Authentic virus PRNT IC50” value was 1.23 nM.

Target: T1, SARS-CoV-2 (Wuhan-Hu-1 strain) spike …
Experiment: cell-based or functional assay
Remark: another data set of the same source
In the case of B11, the “Pseudo-neutralization (GFP)” value is reported as over 3 µM. B1 was tested, and the “Pseudo-neut IC50 Luciferase” value was 1.11 nM. For B4, the “Pseudo-neut IC50 Luciferase” value was 1.08 nM. B2 was tested, and the “Pseudo-neut IC50 Luciferase” value was 0.102 nM and the “Pseudo-neutralization (GFP)” value was under 0.0005 µM. In the case of B5, the “Pseudo-neut IC50 Luciferase” value is reported as 0.509 nM. With B12 the “Pseudo-neut IC50 Luciferase” value was 6.12 nM. For B3, the “Pseudo-neut IC50 Luciferase” value was 1.56 nM. B6 was tested, and the “Pseudo-neut IC50 Luciferase” value was 4.13 nM. For B13, the “Pseudo-neut IC50 Luciferase” value was 12.2 nM. With B14 the “Pseudo-neut IC50 Luciferase” value was 14.5 nM. B7 was tested, and the “Pseudo-neut IC50 Luciferase” value was 0.524 nM. With B8 the “Pseudo-neut IC50 Luciferase” value was 0.569 nM. In the case of B15, the “Pseudo-neutralization (GFP)” value is reported as 0.5 µM and 3 µM. For B16, the “Pseudo-neutralization (GFP)” value was 0.5 µM and 3 µM. B9 was tested, and the “Pseudo-neut IC50 Luciferase” value was 1.5 nM. B10 was tested, and the “Pseudo-neut IC50 Luciferase” value was 1.57 nM. B17 was tested, and the “Pseudo-neutralization (GFP)” value was over 3 µM. B18 was tested, and the “Pseudo-neutralization (GFP)” value was over 3 µM.

The binders below were run against SARS-CoV-2 spike glycoprotein (Wuhan-Hu-1 strain) on pseudotyped virus particles (SARS-CoV-2 (Wuhan-Hu-1 strain), UniProt P0DTC2 14-1273) (assay: cell-based or functional assay).
In the case of B19, the “Pseudo-neutralization IC50 (Luciferase)” value is reported as 6 nM. In the case of B20, the “Pseudo-neutralization IC50 (Luciferase)” value is reported as 7 nM. In the case of B21, the “Pseudo-neutralization (GFP)” value is reported as 500 nM.

Each binder was assayed against SARS-CoV-2 spike receptor-binding domain (RBD) (SARS-CoV-2, UniProt P0DTC2 319-541) (assay: indirect ELISA, RBD coated on plate, 4PL fit).
Work on B19 yielded an ELISA affinity of 0.92 nM. Work on B20 yielded an ELISA affinity of 1.04 nM. B21 gave an ELISA affinity of 1.08 nM. In the case of B22, the ELISA affinity is reported as 0.26 nM. For B23, the ELISA affinity was 0.76 nM. B24 was tested, and the ELISA affinity was 0.86 nM. B25 gave an ELISA affinity of 1.51 nM. B26 gave an ELISA affinity of 0.45 nM. With B27 the ELISA affinity was 2.28 nM. For B28, the ELISA affinity was 0.33 nM. B29 gave an ELISA affinity of 0.32 nM. With B30 the ELISA affinity was 0.35 nM.
